Consider one molecule from paper PMC8871475, “An Antibody-Aptamer-Hybrid Lateral Flow Assay for Detection of CXCL9 in Antibody-Mediated Rejection after Kidney Transplantation”.

The series deals with T1, CXCL9 (CXC-motif chemokine ligand 9) (UniProt Q07325 23-125).
T1 sequence: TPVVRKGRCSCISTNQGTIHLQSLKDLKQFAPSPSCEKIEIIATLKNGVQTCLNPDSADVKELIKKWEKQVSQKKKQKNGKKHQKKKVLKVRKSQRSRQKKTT
The series is described as follows: lateral flow assay (antibody-aptamer sandwich); capture antibody A in test zone; LOD 10 pg/mL CXCL9 in binding buffer, 45 min; LFA binding buffer (PBS-based, urine-like): 138 mM NaCl, 5 mM KCl, 8.1 mM Na2HPO4, 1.5 mM KH2PO4, 1 mM MgCl2, 1 mM CaCl2, 170 mM urea, 7 mM ammonium acetate, 0.25% BSA, 0.1 mg/mL salmon sperm DNA, pH 6.5; temperature not stated; Kd conditions not given. As to conditions: protein: commercial; label: gold nanoparticle (5').

B1: AuNP-G123 (ssDNA)
DNA: CACGACGCAAGGGACCACAGGGAGGGAGGGTGGGCAAAGGGCCCTAAGTCCGTAACAAAAACACAGCACGACACCGCAGAGGCA
modifications: 5' C6-disulfide linker and hexaethylene glycol spacer
Take B1: the binding result was “binds”.
